[ ]: non-standard residue; d: D form. 8x polyethylene glycol‑amino = O-(8x polyethylene glycol-amino)-tyrosine, SITE 45; 9x polyethylene glycol‑azido = O-(9x polyethylene glycol-azido)-tyrosine, SITE 42; Ygp = O-(8x polyethylene glycol-amino)-tyrosine (Tyr, amino-capped PEG8); Yn3 = O-(9x polyethylene glycol-azido)-tyrosine (Tyr, azide-capped PEG9); hSer = N[C@@H](CCO)C(=O)O; Nle = CCCC[C@H](N)C(=O)O

From patent US20240376170A1 (BRIGHT PEAK THERAPEUTICS, published 2024) come the findings set out here.

B1: CMP-311, uPa cleaved molecule (ligand)
chain: APTSSSTKKTQLQLEHLLLDLQKILNGINNYKNPKLTR[Nle]L[hSer][Yn3]KF[Ygp][Nle]PKKATELKHLQCLEEELKPLEEVL[hSer]LAQSKNFHLRPRDLISNINVIVLELKGSETTF[hSer]CEYADETATIVEFLNRWITFSQSIISTLT
modifications: also: m77 after uPa cleavage: Lys23 side-chain branch (cleavable peptide) cut, remnant not given here
B2: CMP-314, MMP2 cleaved molecule (ligand)
chain: APTSSSTKKTQLQLEHLLLDLQKILNGINNYKNPKLTR[Nle]L[hSer]Y(9x polyethylene glycol‑azido)KFY(8x polyethylene glycol‑amino)[Nle]PKKATELKHLQCLEEELKPLEEVL[hSer]LAQSKNFHLRPRDLISNINVIVLELKGSETTF[hSer]CEYADETATIVEFLNRWITFSQSIISTLT
modifications: also: K23 side chain attached to another sequence, m85 after MMP2 cleavage, product not given here as a sequence
B3: CMP-313, uPa cleaved molecule (ligand)
chain: APTSSSTKKTQLQLEHLLLDLQKILNGINNYKNPKLTR[Nle]L[hSer]Y(9x polyethylene glycol‑azido)KFY(8x polyethylene glycol‑amino)[Nle]PKKATELKHLQCLEEELKPLEEVL[hSer]LAQSKNFHLRPRDLISNINVIVLELKGSETTF[hSer]CEYADETATIVEFLNRWITFSQSIISTLT
modifications: also: K23 side chain attached to another sequence, m81 after uPa cleavage, product not given here as a sequence
B4: CMP-310, MMP2 cleaved molecule (ligand)
chain: APTSSSTKKTQLQLEHLLLDLQKILNGINNYKNPKLTR[Nle]L[hSer][Yn3]KF[Ygp][Nle]PKKATELKHLQCLEEELKPLEEVL[hSer]LAQSKNFHLRPRDLISNINVIVLELKGSETTF[hSer]CEYADETATIVEFLNRWITFSQSIISTLT
modifications: also: m73 after MMP2 cleavage: Lys23 side-chain branch (cleavable peptide) cut, remnant not given here
B5: CMP-313, Matriptase cleaved molecule (ligand)
chain: APTSSSTKKTQLQLEHLLLDLQKILNGINNYKNPKLTR[Nle]L[hSer][Yn3]KF[Ygp][Nle]PKKATELKHLQCLEEELKPLEEVL[hSer]LAQSKNFHLRPRDLISNINVIVLELKGSETTF[hSer]CEYADETATIVEFLNRWITFSQSIISTLT
modifications: also: m81 after matriptase cleavage: Lys23 side-chain branch (cleavable peptide) cut, remnant not given here
B6: CMP-315, MMP2 cleaved molecule (ligand)
chain: APTSSSTKKTQLQLEHLLLDLQKILNGINNYKNPKLTR[Nle]L[hSer]Y(9x polyethylene glycol‑azido)KFY(8x polyethylene glycol‑amino)[Nle]PKKATELKHLQCLEEELKPLEEVL[hSer]LAQSKNFHLRPRDLISNINVIVLELKGSETTF[hSer]CEYADETATIVEFLNRWITFSQSIISTLT
modifications: also: K23 side chain attached to another sequence, m89 after MMP2 cleavage, product not given here as a sequence
B7: CMP-311, Matriptase cleaved molecule (ligand)
chain: APTSSSTKKTQLQLEHLLLDLQKILNGINNYKNPKLTR[Nle]L[hSer][Yn3]KF[Ygp][Nle]PKKATELKHLQCLEEELKPLEEVL[hSer]LAQSKNFHLRPRDLISNINVIVLELKGSETTF[hSer]CEYADETATIVEFLNRWITFSQSIISTLT
modifications: also: m77 after matriptase cleavage: Lys23 side-chain branch (cleavable peptide) cut, remnant not given here
B8: CMP-311, MMP2 cleaved molecule (ligand)
chain: APTSSSTKKTQLQLEHLLLDLQKILNGINNYKNPKLTR[Nle]L[hSer][Yn3]KF[Ygp][Nle]PKKATELKHLQCLEEELKPLEEVL[hSer]LAQSKNFHLRPRDLISNINVIVLELKGSETTF[hSer]CEYADETATIVEFLNRWITFSQSIISTLT
modifications: also: m77 after MMP2 cleavage: Lys23 side-chain branch (cleavable peptide) cut, remnant not given here
B9: CMP-315, uPa cleaved molecule (ligand)
chain: APTSSSTKKTQLQLEHLLLDLQKILNGINNYKNPKLTR[Nle]L[hSer]Y(9x polyethylene glycol‑azido)KFY(8x polyethylene glycol‑amino)[Nle]PKKATELKHLQCLEEELKPLEEVL[hSer]LAQSKNFHLRPRDLISNINVIVLELKGSETTF[hSer]CEYADETATIVEFLNRWITFSQSIISTLT
modifications: also: uPa cleavage product, not given here as a sequence, Lys23 side-chain attachment remnant unknown
B10: CMP-314, uPa cleaved molecule (ligand)
chain: APTSSSTKKTQLQLEHLLLDLQKILNGINNYKNPKLTR[Nle]L[hSer]Y(9x polyethylene glycol‑azido)KFY(8x polyethylene glycol‑amino)[Nle]PKKATELKHLQCLEEELKPLEEVL[hSer]LAQSKNFHLRPRDLISNINVIVLELKGSETTF[hSer]CEYADETATIVEFLNRWITFSQSIISTLT
modifications: also: uPa cleavage product, not given here as a sequence, Lys23 side-chain attachment remnant unknown
B11: CMP-310, Matriptase cleaved molecule (ligand)
chain: APTSSSTKKTQLQLEHLLLDLQKILNGINNYKNPKLTR[Nle]L[hSer][Yn3]KF[Ygp][Nle]PKKATELKHLQCLEEELKPLEEVL[hSer]LAQSKNFHLRPRDLISNINVIVLELKGSETTF[hSer]CEYADETATIVEFLNRWITFSQSIISTLT
modifications: also: m73 after matriptase cleavage: Lys23 side-chain branch (cleavable peptide) cut, remnant not given here
B12: CMP-310, uPa cleaved molecule (ligand)
chain: APTSSSTKKTQLQLEHLLLDLQKILNGINNYKNPKLTR[Nle]L[hSer][Yn3]KF[Ygp][Nle]PKKATELKHLQCLEEELKPLEEVL[hSer]LAQSKNFHLRPRDLISNINVIVLELKGSETTF[hSer]CEYADETATIVEFLNRWITFSQSIISTLT
modifications: also: m73 after uPa cleavage: Lys23 side-chain branch (cleavable peptide) cut, remnant not given here
B13: CMP-313, MMP2 cleaved molecule (ligand)
chain: APTSSSTKKTQLQLEHLLLDLQKILNGINNYKNPKLTR[Nle]L[hSer][Yn3]KF[Ygp][Nle]PKKATELKHLQCLEEELKPLEEVL[hSer]LAQSKNFHLRPRDLISNINVIVLELKGSETTF[hSer]CEYADETATIVEFLNRWITFSQSIISTLT
modifications: also: m81 after MMP2 cleavage: Lys23 side-chain branch (cleavable peptide) cut, remnant not given here
B14: CMP-315, Matriptase cleaved molecule (ligand)
chain: APTSSSTKKTQLQLEHLLLDLQKILNGINNYKNPKLTR[Nle]L[hSer]Y(9x polyethylene glycol‑azido)KFY(8x polyethylene glycol‑amino)[Nle]PKKATELKHLQCLEEELKPLEEVL[hSer]LAQSKNFHLRPRDLISNINVIVLELKGSETTF[hSer]CEYADETATIVEFLNRWITFSQSIISTLT
modifications: also: matriptase cleavage product, not given here as a sequence, Lys23 side-chain attachment remnant unknown
B15: CMP-314, Matriptase cleaved molecule (ligand)
chain: APTSSSTKKTQLQLEHLLLDLQKILNGINNYKNPKLTR[Nle]L[hSer]Y(9x polyethylene glycol‑azido)KFY(8x polyethylene glycol‑amino)[Nle]PKKATELKHLQCLEEELKPLEEVL[hSer]LAQSKNFHLRPRDLISNINVIVLELKGSETTF[hSer]CEYADETATIVEFLNRWITFSQSIISTLT
modifications: also: matriptase cleavage product, not given here as a sequence, Lys23 side-chain attachment remnant unknown

The assay concerns the target T1, IL-2 receptor βγ complex (human, UniProt P14784 27-551; P31785 23-369).
T1 sequence (looked up) 1: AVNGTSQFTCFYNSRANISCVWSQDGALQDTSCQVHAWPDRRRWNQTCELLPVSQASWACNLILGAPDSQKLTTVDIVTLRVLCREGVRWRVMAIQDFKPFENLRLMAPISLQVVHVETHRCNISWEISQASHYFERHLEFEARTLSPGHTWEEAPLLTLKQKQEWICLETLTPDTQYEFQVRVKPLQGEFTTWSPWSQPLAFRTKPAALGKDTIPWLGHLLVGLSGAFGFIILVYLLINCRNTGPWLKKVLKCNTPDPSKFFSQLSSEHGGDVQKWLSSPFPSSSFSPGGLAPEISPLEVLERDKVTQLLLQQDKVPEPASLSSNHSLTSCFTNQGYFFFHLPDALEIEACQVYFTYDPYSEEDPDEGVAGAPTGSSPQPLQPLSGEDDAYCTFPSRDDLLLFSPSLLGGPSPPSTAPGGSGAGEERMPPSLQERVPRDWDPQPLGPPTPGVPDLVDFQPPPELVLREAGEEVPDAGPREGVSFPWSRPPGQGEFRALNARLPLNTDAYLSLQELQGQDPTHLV
T1 sequence (looked up) 2: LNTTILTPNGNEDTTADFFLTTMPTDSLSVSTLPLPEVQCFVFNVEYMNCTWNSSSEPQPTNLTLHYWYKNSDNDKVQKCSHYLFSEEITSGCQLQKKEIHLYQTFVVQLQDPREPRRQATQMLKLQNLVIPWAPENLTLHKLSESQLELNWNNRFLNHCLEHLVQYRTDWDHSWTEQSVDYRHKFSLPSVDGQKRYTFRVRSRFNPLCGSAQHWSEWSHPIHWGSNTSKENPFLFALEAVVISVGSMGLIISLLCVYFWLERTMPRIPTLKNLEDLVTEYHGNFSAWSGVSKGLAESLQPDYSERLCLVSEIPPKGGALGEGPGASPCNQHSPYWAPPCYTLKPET
Put plainly: cell-based or functional assay.
Consider B1, for which the “Average EC50, pSTAT5 Assay in NK cells” value was 0.548 nM.
On to B2, for which the “Average EC50, pSTAT5 Assay in NK cells” value was 40 pM.
Take B3: the “Average EC50, pSTAT5 Assay in NK cells” value came out at 81 pM.
The value for B4 was 4.07 nM.
Under B5 stands 0.714 nM; under B6, 0.369 nM; under B7, 0.512 nM.
Under B8 stands 73 pM; under B9, 0.335 nM; under B10, 65 pM.
As for B11, the “Average EC50, pSTAT5 Assay in NK cells” value came out at 6.9 nM.
The value for B12 was 6.79 nM; that for B13 was 35 pM; that for B14 was 0.387 nM.
Under B15 stands 0.117 nM.
